The source of these data is patent publication US20240360203A1.

Assay [1] concerns the target SARS-CoV-2 BA.2 spike protein (SARS-CoV-2). As to the kind of experiment: cell-based or functional assay.
Assay [2] addresses SARS-CoV-2 BQ.1.1 spike protein (SARS-CoV-2). As to the kind of experiment: cell-based or functional assay.
Assay [3] concerns the target SARS-CoV-2 Delta (B.1.617.2) spike protein (SARS-CoV-2). Kind of assay: cell-based or functional assay.
In assay [4] the target is SARS-CoV-2 XBB.1.5 spike protein (SARS-CoV-2). Kind of assay: cell-based or functional assay.
Assay [5] addresses SARS-CoV-2 BQ.1.1 spike protein (SARS-CoV-2). As to the kind of experiment: cell-based or functional assay. The source holds these as a separate data set.
The target in assay [6] is SARS-CoV-2 Delta (B.1.617.2) spike protein (SARS-CoV-2). Kind of assay: cell-based or functional assay. The source holds these as a separate data set.
Assay [7] deals with SARS-CoV-2 XBB.1.5 spike protein (SARS-CoV-2). As to the kind of experiment: cell-based or functional assay. The source holds these as a separate data set.
Assay [8] has as its target SARS-CoV-2 BQ.1.1 spike protein (SARS-CoV-2). As to the kind of experiment: cell-based or functional assay. This is another data set of the same source.
The target of assay [9] is SARS-CoV-2 Delta (B.1.617.2) spike protein (SARS-CoV-2). Kind of assay: cell-based or functional assay. The source holds these as a separate data set.
The target in assay [10] is SARS-CoV-2 XBB.1.5 spike protein (SARS-CoV-2). As to the kind of experiment: cell-based or functional assay. This is another data set of the same source.
The target in assay [11] is SARS-CoV-2 BQ.1.1 spike protein (SARS-CoV-2). As to the kind of experiment: cell-based or functional assay. This is another data set of the same source.
Assay [12] deals with SARS-CoV-2 Delta (B.1.617.2) spike protein (SARS-CoV-2). As to the kind of experiment: cell-based or functional assay. The source holds these as a separate data set.
Assay [13] addresses SARS-CoV-2 XBB.1.5 spike protein (SARS-CoV-2). As to the kind of experiment: cell-based or functional assay. The source holds these as a separate data set.
The target of assay [14] is SARS-CoV-2 spike S2 peptide 1149-1163, biotinylated (SARS-CoV-2). As to the kind of experiment: DELFIA on captured biotin-peptide. On the set-up: unit not given beside the values.
Assay [15] deals with SARS-CoV-2 spike S2 peptide 1149-1167, biotinylated (SARS-CoV-2). Kind of assay: DELFIA on captured biotin-peptide. Details: unit not given beside the values.
Assay [16] addresses SARS-CoV-2 spike S2 peptide 1143-1162, biotinylated (SARS-CoV-2). As to the kind of experiment: DELFIA on captured biotin-peptide. On the set-up: unit not given beside the values.
Assay [17] concerns the target SARS-CoV-2 spike S2 peptide 1145-1159, biotinylated (SARS-CoV-2). As to the kind of experiment: DELFIA on captured biotin-peptide. Details: unit not given beside the values.
Assay [18] addresses SARS-CoV-2 spike S2 peptide 1137-1151, biotinylated (SARS-CoV-2). Kind of assay: DELFIA on captured biotin-peptide. On the set-up: unit not given beside the values.
Assay [19] concerns the target SARS-CoV-2 spike S2 peptide 1153-1167, biotinylated (SARS-CoV-2). As to the kind of experiment: DELFIA on captured biotin-peptide. On the set-up: unit not given beside the values.
The target of assay [20] is SARS-CoV-2 spike S2 peptide 1133-1147, biotinylated (SARS-CoV-2). Kind of assay: DELFIA on captured biotin-peptide. On the set-up: unit not given beside the values.
The target of assay [21] is SARS-CoV-2 spike S2 peptide 1141-1155, biotinylated (SARS-CoV-2). As to the kind of experiment: DELFIA on captured biotin-peptide. On the set-up: unit not given beside the values.
In assay [22] the target is SARS-CoV-2 spike S2 peptide 1157-1171, biotinylated (SARS-CoV-2). As to the kind of experiment: DELFIA on captured biotin-peptide. On the set-up: unit not given beside the values.

Sotrovimab VH/VL-huIgG1-LS (antibody) had a pseudovirus neutralization EC50, Vero E6 in assay [1] of 0.851 µg/mL. The pseudovirus neutralization EC80, Vero E6 (sotrovimab VH/VL-huIgG1-LS + isotype) in assay [2] came to 4.4 µg/mL; in assay [3], 0.042 µg/mL; in assay [4] it was 0.68 µg/mL. For the same substance, the pseudovirus neutralization EC90, Vero E6 (sotrovimab VH/VL-huIgG1-LS + isotype) was determined as 9.6 µg/mL in assay [5], 0.11 µg/mL in assay [6] and 1.5 µg/mL in assay [7]. Also, the results for the pseudovirus neutralization EC50, Vero E6 (sotrovimab VH/VL-huIgG1-LS + isotype) in [8], in [9] and in assay [10] were 1.2 µg/mL, 0.0079 µg/mL and 0.17 µg/mL, respectively. Besides, the pseudovirus neutralization Emax, Vero E6 (sotrovimab VH/VL-huIgG1-LS + isotype) (% neutralization) in [11] was determined as 71.9; in assay [12], 96.9; in [13], 93.4.
For the substance “isotype control (palivizumab variable regions expressed as human IgG1 with LS mutation in the Fc region) (antibody)”, the AUC in assay [14] worked out at 20500; in [15] it was 2600; in assay [16], 3110; in assay [17], 1520; in [18] it was 19300; in [19] it was 8120. Also, the results for the AUC in assay [20], in assay [21] and in assay [22] were 4060, 13300 and 3110, respectively.
